# Measurements published in PMC4486471 (Nature communications, 2014).
# B1: auto-phosphorylated minimal dual catalytic domain fragment of murine IRE1α encompassing residues 549 to 977 (domain or fragment, mouse, UniProt Q9EQY0 549-977, looked up)
# chain: SPSLEQDDEDEETRMVIVGKISFCPKDVLGHGAEGTIVYKGMFDNRDVAVKRILPECFSFADREVQLLRESDEHPNVIRYFCTEKDRQFQYIAIELCAATLQEYVEQKDFAHLGLEPITLLHQTTSGLAHLHSLNIVHRDLKPHNILLSMPNAHGRIKAMISDFGLCKKLAVGRHSFSRRSGVPGTEGWIAPEMLSEDCKDNPTYTVDIFSAGCVFYYVISEGYHPFGKSLQRQANILLGACNLDCFHSDKHEDVIARELIEKMIAMDPQQRPSAKHVLKHPFFWSLEKQLQFFQDVSDRIEKEALDGPIVRQLERGGRAVVKMDWRENITVPLQTDLRKFRTYKGGSVRDLLRAMRNKKHHYRELPVEVQETLGSIPDDFVRYFTSRFPHLLSHTYQAMELCRHERLFQTYYWHEPTEPQPPVIPYAL
# modifications: auto-phosphorylated (sites not given)
# Molecular target: the molecule itself
# Assay: crystal structure
protein,measurement,value
B1,binding result,binds
